Data on one molecule can be found in patent US20250066490A1 (PROFOUNDBIO US, published 2025).

As a reminder, the EC50 is the midpoint of the concentration-response curve. Broadly, the Kd is the free concentration of one partner at which half of the binding sites on the other are occupied at equilibrium, for simple one-to-one binding. One may read the koff as the rate constant with which the complex falls apart. A higher koff goes with fast dissociation. By kon is commonly meant a measure of how fast the partners come together.

For assay [1], the target named is T1, human CD70 expressed on the cell surface of tumor cell lines (human, UniProt P32970 1-193).
T1 sequence (looked up): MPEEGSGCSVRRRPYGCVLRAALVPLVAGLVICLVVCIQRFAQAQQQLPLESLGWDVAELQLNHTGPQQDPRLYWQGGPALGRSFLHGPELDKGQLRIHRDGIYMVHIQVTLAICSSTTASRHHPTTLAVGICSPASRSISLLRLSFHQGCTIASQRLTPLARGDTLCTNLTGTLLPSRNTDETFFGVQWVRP
The assay is described as follows: cell-based or functional assay.

Assay [2] has as its target T1, human CD70 expressed on the cell …. Put plainly: flow cytometry on Raji cells. The protocol:
Binding activity of 2E7 or the isotype control with a target cell line (Raji) or a cell line (MCF-7) that has negligible level of CD70 expression were evaluated by flow cytometry (Beckman, Cytoflex). 3×10⁵ cells per well were seeded on a 96-well V-bottomed plate and incubated with 100 μl of 2E7 in serial dilutions. After 30 min incubation at 4° C., cells were washed twice with PBS, stained with 100 μl of 1:200 diluted PE-conjugated anti-human Fc in FACS buffer (1×PBS containing 1% BSA), then incubated at 4° C. for 30 min. Cells were finally washed two times with PBS and analyzed by flow cytometric analysis.

Assay [3] shares this target. The assay is described as follows: flow cytometry on 786-O cells. The protocol: (§1) The lead antibodies were tested for binding to renal carcinoma cells and glioblastoma cells expressing CD70 on the cell surface by flow cytometry. […] U251 cells were cultured with MEM medium containing of 10% FBS and 1% NEAA+1 mM sodium pyruvate. DBTRG-05MG cells were cultured with DMEM medium (Gibco, Cat #C11995500BT) containing of 10% FBS. Each of the lead antibodies and the controls were incubated for 30 mins with the different cell lines (3×10⁵ cells per well) in 0.2 ml FACS buffer (1×PBS with 0.1% BSA) at 4° C. Then, the cells were pelleted, washed, and incubated at 4° C. for 30 mins with 100 μl of 1:200 diluted PE-conjugated anti human Fc (Abcam, Ab98596) in FACS buffer. The cells were pelleted again, washed with PBS, resuspended in FACS buffer and analyzed by flow cytometer (Beckman, CytoFLEX).
(§2) Antibodies 2H8 and 2D2 had slightly higher binding ability to the cell lines than that of antibody 69A7.

Assay [4] has the same target. Put plainly: flow cytometry on DBTRG-05MG cells. The protocol: as §1, §2
In assay [5] the target is T2, CD70 ECD (antigen immobilized on the CM5 chip) (UniProt P32970 39-193).
T2 construct: extracellular domain; also called CD70 antigen
T2 sequence (looked up): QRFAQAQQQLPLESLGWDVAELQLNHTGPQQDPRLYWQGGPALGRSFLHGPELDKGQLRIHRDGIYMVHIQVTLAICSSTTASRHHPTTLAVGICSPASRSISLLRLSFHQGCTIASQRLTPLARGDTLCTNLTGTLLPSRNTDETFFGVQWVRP
Put plainly: SPR (Biacore T200), CD70 ECD on CM5 chip. As to the method:
(§3) The immobilization of antigen CD70 ECD was performed at 25° C. with HBS-EP as the running buffer. Sensor chip surface of flow cells 1, 4 were activated by freshly mixed 50 mmol/L N-Hydroxy succinimide (NHS) and 200 mmol/L 1-ethyl-3-(3-dimethylaminopropyl) carbodiimide hydrochloride (EDC) for 420s (10 μL/min). Afterwards, CD70 antigen diluted in 10 mmol/L NaAC (pH 4.5) was injected into flow cell 4 to achieve conjugation of the appropriate Response Unit, while flow cell 1 was set as a blank. After the amine coupling reaction, the remaining active coupling sites on chip surface were blocked by 420s injection of 1 mol/L ethanolamine hydrochloride.
(§4) The assay was performed at 25° C. and the running buffer was HBS-EP. Diluted antibodies were injected over the surface of flow cells 1 and 4 during the association phase, followed by injecting running buffer as the dissociation phase. All the data were processed using Biacore T200 Evaluation software version 3.1. Flow cell 1 and a blank injection of buffer in each cycle were used as a double reference for Response Units subtraction. Kinetic data of the interaction between the antibodies and CD70 antigen were obtained through affinity measurement.
In general terms: In SPR one partner is held on a chip, and binding of the other changes the refractive index at the surface.

For assay [6], the target named is T2, CD70 ECD (antigen immobilized on the …). The assay is described as follows: SPR (Biacore T200), CD70 ECD on CM5 chip, IgG as analyte. As to the method:
as §3, §4

For assay [7], the target named is T1, human CD70 expressed on the cell …. Put plainly: flow cytometry on U251 cells, PE anti-human Fc, MFI; same fit as Table 6, which prints it in nM. As to the method: as §1, §2
Assay [8] deals with T3, human CD70 recombinant protein (human, UniProt P32970 39-193, limits assumed).
T3 construct: May be the same reagent as ACRO CDL-H5246; also called CD70 protein
T3 sequence (looked up): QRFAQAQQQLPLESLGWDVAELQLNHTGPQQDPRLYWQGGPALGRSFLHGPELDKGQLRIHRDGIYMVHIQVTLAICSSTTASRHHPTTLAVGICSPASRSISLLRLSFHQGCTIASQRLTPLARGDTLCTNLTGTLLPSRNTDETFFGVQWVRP
The assay is described as follows: ELISA, IgG titrated on coated human CD70 recombinant protein (2 µg/ml), anti-human Fc-HRP, OD450. As to the method:
The binding specificity of the CD70 antibodies was tested by ELISA according to a standard protocol. Briefly, 96-well micro-plates were coated with 2 μg/ml of human or cynomolgus CD70 recombinant protein in PBS at 100 μl per well and incubated overnight at 4° C. The plates were washed twice with TBS+0.5% Tween20. 200 μL of blocking buffer (2% BSA in PBS) was added to each well, and the plates were incubated at 37° C. for 2 hours. The plates were washed using the wash buffer mentioned above. Serially diluted antibodies were added to the ELISA plates using 100 μl per well, and the plates were incubated for 1 hour at room temperature. Then plates were washed 3 times. HRP conjugated anti-human Fc antibody solution (Sigma, I18885-2ML, diluted with blocking buffer) was added to the plates using 100 μl per well. The plates were incubated at room temperature for 1 hour and then washed 3 times. Then the TMB solution was added to plates using 100 μl per well and the plates were placed at RT for 5-15 mins. Then the stop solution (2M H2SO4) was added using 50 μl per well. The absorbance was measured at A450 and A630.
(An ELISA detects its analyte on a solid surface through an enzyme-linked reagent.)

The target of assay [9] is T1, human CD70 expressed on the cell …. Put plainly: flow cytometry on Caki-1 cells, PE anti-human Fc, MFI; same fit as Table 6, which prints it in nM. As to the method:
as §1, §2
For orientation: In flow cytometry, cells or beads pass a laser one at a time.

Assay [10] shares this target. The assay is described as follows: flow cytometry on DBTRG-05MG cells, PE anti-human Fc, MFI; same fit as Table 6, which prints it in nM. The protocol:
as §1, §2

B1: 2E7, full IgG (antibody, V domains shown)
VH: QVQLQESGPGLVKPSETLSLTCTVSGGSVSSDYYYWSWIRQPPGKGLEWLGYIYYSGSTNYNPSLKSRVTISVDTSKNQFSLKLRSVTTADTAVYYCARGDGDFLGVCFDYWGQGTLVTVSS
VL: EIVLTQSPATLSLSPGERATLSCRASQSVSSYLAWYQQKPGQAPRLLIFDASNRATGIPARFSGSGSGTDFTLTISSLEPEDFAVYYCQQRSNWPLTFGGGTKVEIK
In the case of B1, the “Internalization rate (%) on 786-O” value in assay [1] stood at 62%. In addition, the “Internalization rate (%) on Caki-1” value in assay [1] is 51%. The EC50 in assay [2] was around 19 nM; in [3], 2.69 nM; in assay [4], 6.11 nM; in assay [7], 0.604 µg/mL; in assay [8], 0.0161 µg/mL; in [9] it was 0.421 µg/mL. The concentration giving a half-maximal response (EC50) in assay [10] was 0.917 µg/mL. Besides, the “fold greater affinity than parent antibody 69A7” value in assay [5] turned out to be 22 fold. In assay [6], this molecule registered an equilibrium dissociation constant (Kd) of 14 nM. Further, the koff in assay [6] was 0.00106 s⁻¹. The kon in assay [6] worked out at 75400 M⁻¹ s⁻¹.
